Here are results for eight molecules from patent US9745384B2, “Peptides useful for modulating histone demethylase function” (The Brigham and Women's Hospital, Inc., priority 2012, dated 2017).

Ends that are not written are not given here.

Assay [1] deals with CCND1 and CCNE1 expression. Kind of assay: CCND1 and CCNE1 expression in breast cancer cells. In kind it is cell-based. The settings on record: overexpression in cells (FIG. 25C). From the text:
We first established stable MDA-MB-231 cell lines that express similar levels of the mutant or the wild-type full-length NPAC from cDNAs introduced with silent mutations and resistant to NPAC shRNA (data not shown). […] Thus, mutation of the LSD2-interacting residues F218, L219 and L291 of NPAC can disrupt LSD2 and NPAC functions in vivo.
We next examined if it is possible to use a small molecule to manipulate the interaction between NPAC and LSD2, thus affecting target gene expression. We have shown that a short mutant NPAC peptide (residues 214-225) can interact with LSD2 with high affinity, however, lost its cofactor activity. NPAC214-225.F217A is expected to be able to competitive inhibit the interaction between endogenous NPAC and LSD2, without stimulating LSD2 demethylase activity (FIG. 25A, right). […] Thus, unable to stimulate the histone demethylase activity of endogenous LSD2, this mutant peptide is a potent inhibitor of LSD2 function by competitively inhibiting LSD2 binding by endogenous NPAC.

Assay [2] relates to nucleosomes purified from HeLa. Kind of assay: Nucleosome pulldown by GST-NPAC proteins. In kind it is binding. As to the method:
Nucleosomes were purified from HeLa as previously described (Umlauf et al., 2004). To examine nucleosome binding selectivity of NPAC, 5 μg GST fusion protein bound to glutathione agarose were incubated with 20 μg nucleosomes overnight at 4° C. in nucleosome binding buffer (50 mM NaPO4 pH 7.4, 200 mM NaCl, 0.5% NP-40, 5% glycerol, 10 μM ZnSO4, 1 mM MgCl2, 1 mM DTT, 0.1 mM PMSF). After washing 4 times with the same buffer at 4° C., the beads were boiled in 1×SDS sample loading buffer and elute was resolved by 15% SDS-PAGE for immunoblot analysis or coomassie staining.
For free-DNA competition assays, human genomic DNA was purified from HeLa cells and fragmented to an average size around 300 bp by sonication. Equal amounts of GST-NPAC.d5 bound to glutathione beads were pre-incubated with 0, 5, 10, 25 μg genomic DNA fragments in nucleosome binding buffer for 30 minutes at room temperature, and equal amounts of nucleosomes were added and incubated overnight at 4° C. After extensive washing, GST-NPAC.d5 and bound nucleosomes were eluted by boiling in 1×SDS sample loading buffer, resolved by SDS-PAGE and stained with coomassie blue.

The target in assay [3] is T1, His-LSD2 (Homo sapiens, UniProt Q8NB78).
T1 construct: typically 0.5 μg full-length His-LSD2; made in house; host or cells: Sf9 insect cells
T1 sequence (Q8NB78 1-822): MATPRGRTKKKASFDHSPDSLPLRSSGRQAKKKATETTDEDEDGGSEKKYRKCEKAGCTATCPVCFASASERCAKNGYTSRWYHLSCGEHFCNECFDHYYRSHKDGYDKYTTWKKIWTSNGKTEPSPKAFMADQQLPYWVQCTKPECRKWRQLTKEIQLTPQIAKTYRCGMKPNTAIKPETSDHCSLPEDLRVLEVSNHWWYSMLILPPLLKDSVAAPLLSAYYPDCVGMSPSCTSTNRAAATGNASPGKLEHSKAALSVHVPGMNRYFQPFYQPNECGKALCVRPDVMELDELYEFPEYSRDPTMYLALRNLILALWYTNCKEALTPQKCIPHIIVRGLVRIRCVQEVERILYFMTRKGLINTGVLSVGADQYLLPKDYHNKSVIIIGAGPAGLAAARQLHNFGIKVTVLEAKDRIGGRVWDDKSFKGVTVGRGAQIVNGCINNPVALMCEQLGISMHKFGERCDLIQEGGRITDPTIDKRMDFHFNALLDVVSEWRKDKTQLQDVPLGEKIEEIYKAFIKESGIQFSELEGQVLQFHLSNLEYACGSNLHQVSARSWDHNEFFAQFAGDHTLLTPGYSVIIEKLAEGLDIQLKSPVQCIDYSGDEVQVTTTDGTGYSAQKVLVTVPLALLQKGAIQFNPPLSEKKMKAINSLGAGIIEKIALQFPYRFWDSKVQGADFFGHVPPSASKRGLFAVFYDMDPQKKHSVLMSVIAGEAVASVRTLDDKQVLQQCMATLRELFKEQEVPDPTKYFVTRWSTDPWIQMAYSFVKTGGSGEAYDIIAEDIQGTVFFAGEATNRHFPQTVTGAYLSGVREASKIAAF
Kind of assay: Nucleosome demethylation assay (NPAC cofactor activity for LSD2, immunoblot). The settings on record: threshold dosage of His-LSD2; nucleosomes purified from HeLa. In kind it is biochemical. As to the method: For nucleosome demethylation assays, typically 0.5 μg full-length His-LSD2, 1 μg NPAC protein or peptides, and 2 μg nucleosomes purified from HeLa were used, and demethylation efficiency was analyzed by SDS-PAGE electrophoresis and immunoblot using methylation specific anti-histone H3 antibodies as previously described (Shi et al. 2004).
In general terms: Immunoblotting shows a protein as a band on a membrane.

Assay [4] concerns the target T1, His-LSD2. The experiment in a line: GST-pulldown of His-LSD2 by GST-NPAC proteins. In kind it is binding. The settings on record: coomassie blue staining. The method, then: […] GST or GST-NPAC fusion proteins were bound to glutathione agarose, and were incubated with 2 μg full-length His-LSD2 overnight in 50 mM NaPO4 pH 7.4, 150 mM NaCl, 0.5% NP-40, 5% glycerol, 10 μM ZnSO4, 1 mM MgCl2, 1 mM DTT, 0.1 mM PMSF at 4° C. After washed 4 times with same buffer at 4° C., glutathione agarose beads were boiled in 1×SDS sample loading buffer. Elute was resolved on a 15% SDS-PAGE gel and stained by coomassie blue.

The test system of the next assay is double strand DNA. The experiment in a line: DNA binding assay (GST-pulldown). As to the method: 5-10 μg GST and GST-tagged NPAC truncation proteins were incubated with 1 μg linearized plasmid DNA overnight at 4° C. in 50 mM Tris pH 7.4, 200 mM NaCl, 0.2% NP-40, 1 mM MgCl2, 1 mM EDTA, 1 mM DTT, 0.02 mM ZnSO4. After extensive washing with the same buffer, bound DNA was eluted by incubating with 100 μl 10 mM Tris pH 8.0, 1% SDS for 15 minutes at 65° C. Pulldown DNA was purified using Qiagen PCR purification kit, resolved by agarose gel electrophoresis and stained with Ethidium Bromide.

“GFP-NPAC214-225.F217A: GFP fusion of mutant NPAC peptide (residues 214-225) F217A, overexpressed in cells ({GFP}-DPHAHHFLLSQT; UniProt Q49A26 214-225, looked up, variant F217A)”: the “CCND1 and CCNE1 expression on ectopic expression of the peptide” value in assay [1] is “consistently down regulates CCND1 and CCNE1 expression”; in assay [1] (listed as NPAC.214-215.F217A peptide), “down regulates CCND1 and CCNE1 expression”.

B1: NPAC.d3: Example 2 GST-NPAC truncation, residue 81-553 (protein, UniProt Q49A26 81-553, looked up, fragment)
chain: QAVDAVEEFLRRAKGKDQTSSHNSSDDKNRRNSSEERSRPNSGDEKRKLSLSEGKVKKNMGEGKKRVSSGSSERGSKSPLKRAQEQSPRKRGRPPKDEKDLTIPESSTVKGMMAGPMAAFKWQPTASEPVKDADPHFHHFLLSQTEKPAVCYQAITKKLKICEEETGSTSIQAADSTAVNGSITPTDKKIGFLGLGLMGSGIVSNLLKMGHTVTVWNRTAEKCDLFIQEGARLGRTPAEVVSTCDITFACVSDPKAAKDLVLGPSGVLQGIRPGKCYVDMSTVDADTVTELAQVIVSRGGRFLEAPVSGNQQLSNDGMLVILAAGDRGLYEDCSSCFQAMGKTSFFLGEVGNAAKMMLIVNMVQGSFMATIAEGLTLAQVTGQSQQTLLDILNQGQLASIFLDQKCQNILQGNFKPDFYLKYIQKDLRLAIALGDAVNHPTPMAAAANEVYKRAKALDQSDNDMSAVYRAYIH
modifications: GST tag
As to B1, in assay [2], the “Nucleosome binding (GST-pulldown)” value is listed as “abolish the ability to interact with nucleosomes”.

B2: NPAC.d2: Example 2 GST-NPAC truncation, residues 1-250 (protein, UniProt Q49A26 1-250, looked up, fragment)
chain: MAAVSLRLGDLVWGKLGRYPPWPGKIVNPPKDLKKPRGKKCFFVKFFGTEDHAWIKVEQLKPYHAHKEEMIKINKGKRFQQAVDAVEEFLRRAKGKDQTSSHNSSDDKNRRNSSEERSRPNSGDEKRKLSLSEGKVKKNMGEGKKRVSSGSSERGSKSPLKRAQEQSPRKRGRPPKDEKDLTIPESSTVKGMMAGPMAAFKWQPTASEPVKDADPHFHHFLLSQTEKPAVCYQAITKKLKICEEETGSTS
modifications: GST tag
As to B2, in assay [2], the “Nucleosome binding (GST-pulldown)” value is reported as “strong binding to nucleosomes”.

B3: NP.d9: NP.d3 with deletion of amino acids 214-222 (protein)
chain: SERGSKSPLKRAQEQSPRKRGRPPKDEKDLTIPESSTVKGMMAGPMAAFKWQPTASEPVKDASQTEKPAVCYQAITKKLKICEEETGSTSIQ
modifications: left off: a dimerising Fc or GST; small tags and cut ends
In the case of B3, the “Cofactor activity: stimulation of LSD2 demethylation of nucleosomal H3K4me2” value with His-LSD2 [3] is reported as “but not NP.d7 or NP.d9, significantly enhances LSD2 histone demethylase activity”. Further, the “LSD2 binding (GST-pulldown)” value in the assay with His-LSD2 [4] is recorded as “completely abolishes LSD2 binding”.

B4: NP.d8: NPAC residues 188-252 (protein)
chain: TVKGMMAGPMAAFKWQPTASEPVKDADPHFHHFLLSQTEKPAVCYQAITKKLKICEEETGSTSIQ
modifications: also: fused to dimerising Fc or GST
Consider B4, for which the “Cofactor activity: stimulation of LSD2 demethylation of nucleosomal H3K4me2” value in the assay with His-LSD2 [3] is listed as “significantly enhances LSD2 histone demethylase activity on nucleosomal substrates”. Moreover, the “LSD2 binding (GST-pulldown)” value in the assay with His-LSD2 [4] was “sufficient for LSD2 interaction”.

B5: NPAC.d6: Example 2 GST-NPAC truncation, residues 1-81 (protein, UniProt Q49A26 1-81, looked up, fragment)
chain: MAAVSLRLGDLVWGKLGRYPPWPGKIVNPPKDLKKPRGKKCFFVKFFGTEDHAWIKVEQLKPYHAHKEEMIKINKGKRFQQ
modifications: GST tag
As for B5, the “DNA binding (GST-pulldown)” value with double strand DNA is recorded as “unable to interact with DNA”. The “Nucleosome binding (GST-pulldown)” value in assay [2] was “failed to interact with nucleosomes”.

B6: NPAC.d5: Example 2 GST-NPAC truncation, residues 1-120 (protein, UniProt Q49A26 1-120, looked up, fragment)
chain: MAAVSLRLGDLVWGKLGRYPPWPGKIVNPPKDLKKPRGKKCFFVKFFGTEDHAWIKVEQLKPYHAHKEEMIKINKGKRFQQAVDAVEEFLRRAKGKDQTSSHNSSDDKNRRNSSEERSRP
modifications: GST tag
For B6, the “DNA binding (GST-pulldown)” value in the assay on double strand DNA is “pulls down DNA nearly as efficiently as NPAC.d1”. The “Nucleosome binding (GST-pulldown)” value in assay [2] is recorded as “can readily do so”. Also, the “Nucleosome binding in the presence of increasing free double strand DNA” value in assay [2] (0, 5, 10, 25 μg genomic DNA fragments) is given as “compromised the nucleosome binding ability of NPAC.d5 in a dose dependent manner”.

B7: NPAC.d4: Example 2 GST-NPAC truncation, residue 181-553 (protein, UniProt Q49A26 181-553, looked up, fragment)
chain: LTIPESSTVKGMMAGPMAAFKWQPTASEPVKDADPHFHHFLLSQTEKPAVCYQAITKKLKICEEETGSTSIQAADSTAVNGSITPTDKKIGFLGLGLMGSGIVSNLLKMGHTVTVWNRTAEKCDLFIQEGARLGRTPAEVVSTCDITFACVSDPKAAKDLVLGPSGVLQGIRPGKCYVDMSTVDADTVTELAQVIVSRGGRFLEAPVSGNQQLSNDGMLVILAAGDRGLYEDCSSCFQAMGKTSFFLGEVGNAAKMMLIVNMVQGSFMATIAEGLTLAQVTGQSQQTLLDILNQGQLASIFLDQKCQNILQGNFKPDFYLKYIQKDLRLAIALGDAVNHPTPMAAAANEVYKRAKALDQSDNDMSAVYRAYIH
modifications: GST tag
In the case of B7, the “Nucleosome binding (GST-pulldown)” value in assay [2] is recorded as “abolish the ability to interact with nucleosomes”.
